This test addresses T1, CD3 epsilon homodimer protein (UniProt P07766 23-126).
T1 construct: also called CD3 (CD3 epsilon)
Briefly: SPR, CD3e homodimer on chip. (SPR reads the build-up and loss of mass on a sensor chip optically.)
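Further: surface plasmon resonance at 25 degrees C, antibodies flowed as analyte over CD3 epsilon homodimer amine-coupled to a CM4 chip, running buffer HBS-EP+.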

T1 sequence (P07766 23-126): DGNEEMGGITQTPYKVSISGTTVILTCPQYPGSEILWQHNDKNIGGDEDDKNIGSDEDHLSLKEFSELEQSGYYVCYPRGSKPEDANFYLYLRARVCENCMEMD

B1: GLS3000 H27dR one-arm antibody (H chain CE115HA000) (antibody, human IgG1, kappa, L234A L235A, N297A, name in Kabat numbering)
heavy: QVQLVESGGGVVQPGRSLRLSCAASGFTFSNAWMHWVRQAPGKGLEWVAQIKAKSNNYATYYAESVKGRFTISRDDSKNSLYLQMNSLKTEDTAVYYCRYVHYGAYYGVDAWGQGTTVTVSSASTKGPSVFPLAPSSKSTSGGTAALGCLVKDYFPEPVTVSWNSGALTSGVHTFPAVLQSSGLYSLSSVVTVPSSSLGTQTYICNVNHKPSNTKVDKKVEPKSCDKTHTCPPCPAPEAAGGPSVFLFPPKPKDTLMISRTPEVTCVVVDVSHEDPEVKFNWYVDGVEVHNAKTKPREEQYASTYRVVSVLTVLHQDWLNGKEYKCKVSNKALPAPIEKTISKAKGQPREPQVYTLPPSRCELTKNQVSLSCAVKGFYPSDIAVEWESNGQPENNYKTTPPVLDSDGSFFLVSKLTVDKSRWQQGNVFSCSVMHEALHNHYTQKSLSLSPDYKDDDDK
chain: EPKSSDKTHTCPPCPAPELLGGPSVFLFPPKPKDTLMISRTPEVTCVVVDVSHEDPEVKFNWYVDGVEVHNAKTKPREEQYNSTYRVVSVLTVLHQDWLNGKEYKCKVSNKALPAPIEKTISKAKGQPREPQVCTLPPSRDELTKNQVSLWCLVKGFYPSDIAVEWESNGQPENNYKTTPPVLDSDGSFFLYSKLTVDKSRWQQGNVFSCSVMHEALHNRYTQKSLSLSP
light: DIVMTQSPLSLPVTPGEPASISCRSSQSLVRSNRNTYLHWYQQKPGQAPRLLIYKVSNRFSGVPDRFSGSGSGTDFTLKISRVEAEDVGVYYCGQGTQVPYTFGQGTKLEIKRTVAAPSVFIFPPSDEQLKSGTASVVCLLNNFYPREAKVQWKVDNALQSGNSQESVTEQDSKDSTYSLSSTLTLSKADYEKHKVYACEVTHQGLSSPVTKSFNRGEC
notes: one-arm antibody
For the molecule B1, the “ratio of amounts bound (altered form / unaltered GLS3000 antibody)” value is 0.31.

B2: GLS3000 H27dW one-arm antibody (H chain CE115HA000) (antibody, human IgG1, kappa, L234A L235A, N297A, name in Kabat numbering)
heavy: QVQLVESGGGVVQPGRSLRLSCAASGFTFSNAWMHWVRQAPGKGLEWVAQIKAKSNNYATYYAESVKGRFTISRDDSKNSLYLQMNSLKTEDTAVYYCRYVHYGAYYGVDAWGQGTTVTVSSASTKGPSVFPLAPSSKSTSGGTAALGCLVKDYFPEPVTVSWNSGALTSGVHTFPAVLQSSGLYSLSSVVTVPSSSLGTQTYICNVNHKPSNTKVDKKVEPKSCDKTHTCPPCPAPEAAGGPSVFLFPPKPKDTLMISRTPEVTCVVVDVSHEDPEVKFNWYVDGVEVHNAKTKPREEQYASTYRVVSVLTVLHQDWLNGKEYKCKVSNKALPAPIEKTISKAKGQPREPQVYTLPPSRCELTKNQVSLSCAVKGFYPSDIAVEWESNGQPENNYKTTPPVLDSDGSFFLVSKLTVDKSRWQQGNVFSCSVMHEALHNHYTQKSLSLSPDYKDDDDK
chain: EPKSSDKTHTCPPCPAPELLGGPSVFLFPPKPKDTLMISRTPEVTCVVVDVSHEDPEVKFNWYVDGVEVHNAKTKPREEQYNSTYRVVSVLTVLHQDWLNGKEYKCKVSNKALPAPIEKTISKAKGQPREPQVCTLPPSRDELTKNQVSLWCLVKGFYPSDIAVEWESNGQPENNYKTTPPVLDSDGSFFLYSKLTVDKSRWQQGNVFSCSVMHEALHNRYTQKSLSLSP
light: DIVMTQSPLSLPVTPGEPASISCRSSQSLVWSNRNTYLHWYQQKPGQAPRLLIYKVSNRFSGVPDRFSGSGSGTDFTLKISRVEAEDVGVYYCGQGTQVPYTFGQGTKLEIKRTVAAPSVFIFPPSDEQLKSGTASVVCLLNNFYPREAKVQWKVDNALQSGNSQESVTEQDSKDSTYSLSSTLTLSKADYEKHKVYACEVTHQGLSSPVTKSFNRGEC
notes: one-arm antibody
As to B2, the “ratio of amounts bound (altered form / unaltered GLS3000 antibody)” value turned out to be 0.39.

B3: GLS3000 H27dY one-arm antibody (H chain CE115HA000) (antibody, human IgG1, kappa, L234A L235A, N297A, name in Kabat numbering)
heavy: QVQLVESGGGVVQPGRSLRLSCAASGFTFSNAWMHWVRQAPGKGLEWVAQIKAKSNNYATYYAESVKGRFTISRDDSKNSLYLQMNSLKTEDTAVYYCRYVHYGAYYGVDAWGQGTTVTVSSASTKGPSVFPLAPSSKSTSGGTAALGCLVKDYFPEPVTVSWNSGALTSGVHTFPAVLQSSGLYSLSSVVTVPSSSLGTQTYICNVNHKPSNTKVDKKVEPKSCDKTHTCPPCPAPEAAGGPSVFLFPPKPKDTLMISRTPEVTCVVVDVSHEDPEVKFNWYVDGVEVHNAKTKPREEQYASTYRVVSVLTVLHQDWLNGKEYKCKVSNKALPAPIEKTISKAKGQPREPQVYTLPPSRCELTKNQVSLSCAVKGFYPSDIAVEWESNGQPENNYKTTPPVLDSDGSFFLVSKLTVDKSRWQQGNVFSCSVMHEALHNHYTQKSLSLSPDYKDDDDK
chain: EPKSSDKTHTCPPCPAPELLGGPSVFLFPPKPKDTLMISRTPEVTCVVVDVSHEDPEVKFNWYVDGVEVHNAKTKPREEQYNSTYRVVSVLTVLHQDWLNGKEYKCKVSNKALPAPIEKTISKAKGQPREPQVCTLPPSRDELTKNQVSLWCLVKGFYPSDIAVEWESNGQPENNYKTTPPVLDSDGSFFLYSKLTVDKSRWQQGNVFSCSVMHEALHNRYTQKSLSLSP
light: DIVMTQSPLSLPVTPGEPASISCRSSQSLVYSNRNTYLHWYQQKPGQAPRLLIYKVSNRFSGVPDRFSGSGSGTDFTLKISRVEAEDVGVYYCGQGTQVPYTFGQGTKLEIKRTVAAPSVFIFPPSDEQLKSGTASVVCLLNNFYPREAKVQWKVDNALQSGNSQESVTEQDSKDSTYSLSSTLTLSKADYEKHKVYACEVTHQGLSSPVTKSFNRGEC
notes: one-arm antibody
Take B3: the “ratio of amounts bound (altered form / unaltered GLS3000 antibody)” value amounted to 0.64.

B4: GLS3000 H27dV one-arm antibody (H chain CE115HA000) (antibody, human IgG1, kappa, L234A L235A, N297A, name in Kabat numbering)
heavy: QVQLVESGGGVVQPGRSLRLSCAASGFTFSNAWMHWVRQAPGKGLEWVAQIKAKSNNYATYYAESVKGRFTISRDDSKNSLYLQMNSLKTEDTAVYYCRYVHYGAYYGVDAWGQGTTVTVSSASTKGPSVFPLAPSSKSTSGGTAALGCLVKDYFPEPVTVSWNSGALTSGVHTFPAVLQSSGLYSLSSVVTVPSSSLGTQTYICNVNHKPSNTKVDKKVEPKSCDKTHTCPPCPAPEAAGGPSVFLFPPKPKDTLMISRTPEVTCVVVDVSHEDPEVKFNWYVDGVEVHNAKTKPREEQYASTYRVVSVLTVLHQDWLNGKEYKCKVSNKALPAPIEKTISKAKGQPREPQVYTLPPSRCELTKNQVSLSCAVKGFYPSDIAVEWESNGQPENNYKTTPPVLDSDGSFFLVSKLTVDKSRWQQGNVFSCSVMHEALHNHYTQKSLSLSPDYKDDDDK
chain: EPKSSDKTHTCPPCPAPELLGGPSVFLFPPKPKDTLMISRTPEVTCVVVDVSHEDPEVKFNWYVDGVEVHNAKTKPREEQYNSTYRVVSVLTVLHQDWLNGKEYKCKVSNKALPAPIEKTISKAKGQPREPQVCTLPPSRDELTKNQVSLWCLVKGFYPSDIAVEWESNGQPENNYKTTPPVLDSDGSFFLYSKLTVDKSRWQQGNVFSCSVMHEALHNRYTQKSLSLSP
light: DIVMTQSPLSLPVTPGEPASISCRSSQSLVVSNRNTYLHWYQQKPGQAPRLLIYKVSNRFSGVPDRFSGSGSGTDFTLKISRVEAEDVGVYYCGQGTQVPYTFGQGTKLEIKRTVAAPSVFIFPPSDEQLKSGTASVVCLLNNFYPREAKVQWKVDNALQSGNSQESVTEQDSKDSTYSLSSTLTLSKADYEKHKVYACEVTHQGLSSPVTKSFNRGEC
notes: one-arm antibody
For the molecule B4, the “ratio of amounts bound (altered form / unaltered GLS3000 antibody)” value is 0.3.

B5: GLS3000 H27dS one-arm antibody (H chain CE115HA000) (antibody, human IgG1, kappa, L234A L235A, N297A, name in Kabat numbering)
heavy: QVQLVESGGGVVQPGRSLRLSCAASGFTFSNAWMHWVRQAPGKGLEWVAQIKAKSNNYATYYAESVKGRFTISRDDSKNSLYLQMNSLKTEDTAVYYCRYVHYGAYYGVDAWGQGTTVTVSSASTKGPSVFPLAPSSKSTSGGTAALGCLVKDYFPEPVTVSWNSGALTSGVHTFPAVLQSSGLYSLSSVVTVPSSSLGTQTYICNVNHKPSNTKVDKKVEPKSCDKTHTCPPCPAPEAAGGPSVFLFPPKPKDTLMISRTPEVTCVVVDVSHEDPEVKFNWYVDGVEVHNAKTKPREEQYASTYRVVSVLTVLHQDWLNGKEYKCKVSNKALPAPIEKTISKAKGQPREPQVYTLPPSRCELTKNQVSLSCAVKGFYPSDIAVEWESNGQPENNYKTTPPVLDSDGSFFLVSKLTVDKSRWQQGNVFSCSVMHEALHNHYTQKSLSLSPDYKDDDDK
chain: EPKSSDKTHTCPPCPAPELLGGPSVFLFPPKPKDTLMISRTPEVTCVVVDVSHEDPEVKFNWYVDGVEVHNAKTKPREEQYNSTYRVVSVLTVLHQDWLNGKEYKCKVSNKALPAPIEKTISKAKGQPREPQVCTLPPSRDELTKNQVSLWCLVKGFYPSDIAVEWESNGQPENNYKTTPPVLDSDGSFFLYSKLTVDKSRWQQGNVFSCSVMHEALHNRYTQKSLSLSP
light: DIVMTQSPLSLPVTPGEPASISCRSSQSLVSSNRNTYLHWYQQKPGQAPRLLIYKVSNRFSGVPDRFSGSGSGTDFTLKISRVEAEDVGVYYCGQGTQVPYTFGQGTKLEIKRTVAAPSVFIFPPSDEQLKSGTASVVCLLNNFYPREAKVQWKVDNALQSGNSQESVTEQDSKDSTYSLSSTLTLSKADYEKHKVYACEVTHQGLSSPVTKSFNRGEC
notes: one-arm antibody
Turning to B5, the “ratio of amounts bound (altered form / unaltered GLS3000 antibody)” value amounted to 0.32.

B6: GLS3000 H27dT one-arm antibody (H chain CE115HA000) (antibody, human IgG1, kappa, L234A L235A, N297A, name in Kabat numbering)
heavy: QVQLVESGGGVVQPGRSLRLSCAASGFTFSNAWMHWVRQAPGKGLEWVAQIKAKSNNYATYYAESVKGRFTISRDDSKNSLYLQMNSLKTEDTAVYYCRYVHYGAYYGVDAWGQGTTVTVSSASTKGPSVFPLAPSSKSTSGGTAALGCLVKDYFPEPVTVSWNSGALTSGVHTFPAVLQSSGLYSLSSVVTVPSSSLGTQTYICNVNHKPSNTKVDKKVEPKSCDKTHTCPPCPAPEAAGGPSVFLFPPKPKDTLMISRTPEVTCVVVDVSHEDPEVKFNWYVDGVEVHNAKTKPREEQYASTYRVVSVLTVLHQDWLNGKEYKCKVSNKALPAPIEKTISKAKGQPREPQVYTLPPSRCELTKNQVSLSCAVKGFYPSDIAVEWESNGQPENNYKTTPPVLDSDGSFFLVSKLTVDKSRWQQGNVFSCSVMHEALHNHYTQKSLSLSPDYKDDDDK
chain: EPKSSDKTHTCPPCPAPELLGGPSVFLFPPKPKDTLMISRTPEVTCVVVDVSHEDPEVKFNWYVDGVEVHNAKTKPREEQYNSTYRVVSVLTVLHQDWLNGKEYKCKVSNKALPAPIEKTISKAKGQPREPQVCTLPPSRDELTKNQVSLWCLVKGFYPSDIAVEWESNGQPENNYKTTPPVLDSDGSFFLYSKLTVDKSRWQQGNVFSCSVMHEALHNRYTQKSLSLSP
light: DIVMTQSPLSLPVTPGEPASISCRSSQSLVTSNRNTYLHWYQQKPGQAPRLLIYKVSNRFSGVPDRFSGSGSGTDFTLKISRVEAEDVGVYYCGQGTQVPYTFGQGTKLEIKRTVAAPSVFIFPPSDEQLKSGTASVVCLLNNFYPREAKVQWKVDNALQSGNSQESVTEQDSKDSTYSLSSTLTLSKADYEKHKVYACEVTHQGLSSPVTKSFNRGEC
notes: one-arm antibody
For B6, the “ratio of amounts bound (altered form / unaltered GLS3000 antibody)” value turned out to be 0.29.

The values are drawn from patent US20240270846A1 (published 2024).
